Where no end group is shown, it is not given here.

Assay [1] deals with T1, free (non-NLP) HCV core protein (1-170) (hepatitis C virus (plasmid pCV-H77c), UniProt P27958 1-170).
T1 construct: range 1-170; also called HCV-C170; free HCV-C170; not shown: His6-tag fused at the C-terminus
T1 sequence: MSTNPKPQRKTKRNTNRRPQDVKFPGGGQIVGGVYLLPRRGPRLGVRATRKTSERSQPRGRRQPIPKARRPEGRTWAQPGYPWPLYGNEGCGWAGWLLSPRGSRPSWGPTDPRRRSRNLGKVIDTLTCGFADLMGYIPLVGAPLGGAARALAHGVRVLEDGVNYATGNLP
The assay is described as follows: phage display panning (Ph.D.-7 library) on HCV-C170 adsorbed to a plate, 4 rounds, elution with target protein.

The target of assay [2] is T2, OmpF porin purified from Salmonella typhi (Salmonella typhi, UniProt Q56113 23-363).
T2 construct: also called S. typhi OmpF; OmpF antigen
T2 sequence: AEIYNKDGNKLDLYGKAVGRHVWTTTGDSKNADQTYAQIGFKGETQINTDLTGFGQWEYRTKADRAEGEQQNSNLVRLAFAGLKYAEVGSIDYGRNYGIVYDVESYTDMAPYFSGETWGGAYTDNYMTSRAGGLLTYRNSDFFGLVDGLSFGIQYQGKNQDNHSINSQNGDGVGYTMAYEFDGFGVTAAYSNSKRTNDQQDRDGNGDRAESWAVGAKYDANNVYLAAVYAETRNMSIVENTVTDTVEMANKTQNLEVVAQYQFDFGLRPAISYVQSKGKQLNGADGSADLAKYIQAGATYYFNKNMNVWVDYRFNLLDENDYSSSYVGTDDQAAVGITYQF
The assay is described as follows: phage display panning (Ph.D-7 library) on purified OmpF coated on an ELISA plate, 3 rounds.

For assay [3], the target named is T3, HCV core protein (1-170) NLPs (hepatitis C virus (plasmid pCV-H77c), UniProt P27958 1-170).
T3 construct: range 1-170; also called HCV-C170 NLP; not shown: His6-tag fused at the C-terminus
T3 sequence: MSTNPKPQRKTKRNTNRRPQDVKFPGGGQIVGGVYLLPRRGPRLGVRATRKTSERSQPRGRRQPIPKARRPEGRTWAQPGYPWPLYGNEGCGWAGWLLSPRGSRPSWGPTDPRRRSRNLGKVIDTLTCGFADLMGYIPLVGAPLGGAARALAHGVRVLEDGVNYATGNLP
In words: ELISA-type binding assay, HCV-C170 NLP coated at 1 µg/ml, 2-fold serial dilution of PapMVCP-STASYTR, detected with rabbit anti-PapMV CP polyclonal.

Assay [4] has as its target T1, free (non-NLP) HCV core protein (1-170). In words: ELISA-type binding assay, free (non-NLP) HCV-C170 coated at 1 µg/ml, 2-fold serial dilution of PapMVCP-STASYTR, detected with rabbit anti-PapMV CP polyclonal.

B1: HCV core affinity peptide GPSTPIR (peptide)
peptide: GPSTPIR
modifications: not fully specified
For the molecule B1, the binding result in assay [1] is “binds”.

B2: HCV core affinity peptide HSPKNLH (peptide)
peptide: HSPKNLH
modifications: not fully specified
On to B2, for which the binding result in assay [1] is “binds”.

B3: HCV core affinity peptide GVQIMGR (peptide)
peptide: GVQIMGR
modifications: not fully specified
With B3, in assay [1], the binding result is on record as “binds”.

B4: HCV core affinity peptide NASSLRS (peptide)
peptide: NASSLRS
modifications: not fully specified
As for B4, the binding result in assay [1] was “binds”.

B5: OmpF affinity peptide FHENWPS (peptide)
peptide: FHENWPS
modifications: not fully specified
Regarding B5, the binding result in assay [2] was “binds”.

B6: HCV core affinity peptide STASYTR (peptide)
peptide: STASYTR
modifications: not fully specified
As to B6, the binding result in assay [1] is “binds”.

B7: HCV core affinity peptide SIQYTGV (peptide)
peptide: SIQYTGV
modifications: not fully specified
Take B7: the binding result in assay [1] was “binds”.

B8: PapMVCP-STASYTR (VLPs of PapMV coat protein fused to the HCV core affinity peptide STASYTR and a histidine tag) (designed binder)
chain: MASTPNIAFPAITQEQMSSIKVDPTSNLLPSQEQLKSVSTLMVAAKVPAASVTTVALELVNFCYDNGSSAYTTVTGPSSIPEISLAQLASIVKASGTSLRKFCRYFAPIIWNLRTDKMAPANWEASGYKPSAKFAAFDFFDGVENPAAMQPPSGLTRSPTQEERIANATNKQVHLFQAAAQDNNFASNSAFITKGQISGSTPTIQFLPPPETSSTASYTRTRHHHHHH
notes: also called PapSTA; PapMV-STASYTR
Take B8: the binding result in assay [3] and in assay [4] was “binds” in each case.

B9: HCV core affinity peptide NTPQGMT (peptide)
peptide: NTPQGMT
modifications: not fully specified
Consider B9, for which, in assay [1], the binding result was “binds”.

B10: OmpF affinity peptide FHEFWPT (peptide)
peptide: FHEFWPT
modifications: not fully specified
Turning to B10, in assay [2], the binding result is “binds”.
